According to the supplement of paper PMC10724198:
± gives the standard deviation of the averaged measurements.

Columns and labels:
[1] = system: Saccharomyces cerevisiae; assay: protein stability index of tFT-peptide fusion (C-terminal peptide) (PSI (0-1 scale)); higher = more stable (slower turnover)
Description: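 MPS profiling in S. cerevisiae of the tFT-X12 degron library: putative degron peptides plus stable controls, 12 aa, fused to the C-terminus of a sfGFP-mCherry timer. Cells are FACS-sorted into 8 mCherry/sfGFP bins and deep-sequenced. PSI runs from 0 (unstable) to 1 (stable). Backgrounds are wild type, das1Δ and doa10Δ at 30 °C, and wild type, das1Δ, cdc34-1 and cdc53-1 at 37 °C; 2-3 technical replicates each.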

[2] = system: Saccharomyces cerevisiae; assay: as above; conditions: genetic background: wild type; temperature: 30 C
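Also: PSI is a weighted mean of sequencing reads over stability bins, variants kept only with over 10 reads, mCherry proximal and sfGFP distal, peptide attached via GGGS linker.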

VWVVRGFLGFGG
protein stability index ([1]; genetic background: cdc34-1, temperature: 37 C): 0.532 ± 0.068
protein stability index ([1]; genetic background: cdc53-1, temperature: 37 C): 0.526 ± 0.029
protein stability index ([1]; genetic background: das1 deletion, temperature: 30 C): 0.4302 ± 0.0014
protein stability index ([1]; genetic background: das1 deletion, temperature: 37 C): 0.457 ± 0.012
protein stability index ([1]; genetic background: doa10 deletion, temperature: 30 C): 0.437 ± 0.0075
protein stability index ([1]; genetic background: wild type, temperature: 30 C): 0.438 ± 0.014
protein stability index ([1]; genetic background: wild type, temperature: 37 C): 0.4411 ± 0.00055

WCGLRVGGGGMW
protein stability index [2]: 0.74 ± 0.017

WCGNGFVKKGGL
protein stability index [2]: 0.655 ± 0.007

WCKLLGGSVFGE
protein stability index [2]: 0.671 ± 0.023

WCLRVRASGRGG
protein stability index [2]: 0.786 ± 0.3

WCRGGGWPVTGL
protein stability index [2]: 0.7 ± 0.042

WCVCGVWVGLWG
protein stability index [2]: 0.71 ± 0.076

WCVLLMALFRWW
protein stability index [2]: 0.625 ± 0.025

WDLPKTLCSKYT
protein stability index [2]: 0.727 ± 0.013

WDQLPVNMVYQC
protein stability index [2]: 0.571

WDSLGGCRARLS
protein stability index [2]: 0.7 ± 0.013

WFCRFTGGRRLL
protein stability index [2]: 0.671 ± 0.044

WFDCGSACFGYL
protein stability index [2]: 0.782 ± 0.056

WFGPPAPRKVSP
protein stability index [2]: 0.852 ± 0.042

WFGSPRCVGGQL
protein stability index [2]: 0.703 ± 0.03

WFQRGKIPIHKV
protein stability index [2]: 0.667 ± 0.074

WFRMTFLSPLHD
protein stability index [2]: 0.797 ± 0.044

WGGGGGKEAVVR
protein stability index [2]: 0.6554 ± 0.0042

WGGGGGRGGMGG
protein stability index [2]: 0.693 ± 0.055

WGGGGGVWGHVV
protein stability index [2]: 0.603 ± 0.034

WGGSGRVWVKLG
protein stability index [2]: 0.696 ± 0.055

WGGSSPHRTEPR
protein stability index [2]: 0.666 ± 0.058

WGGWGLRVSCGT
protein stability index [2]: 0.681 ± 0.052

WGLGFRLVFWSV
protein stability index [2]: 0.5289 ± 0.0022

WGPCCSTLLFFV
protein stability index [2]: 0.423 ± 0.12

WGRFGYGPAVVG
protein stability index [2]: 0.735 ± 0.063

WGRRGGVARGRA
protein stability index [2]: 0.787 ± 0.1

WGRRVSPVRDGR
protein stability index [2]: 0.671 ± 0.032

WGSISVEGRVAG
protein stability index [2]: 0.715 ± 0.015

WGTGGRLGVGHV
protein stability index [2]: 0.697 ± 0.056

WGVGGVLEVLLG
protein stability index [2]: 0.522 ± 0.022

WGVGRDVVLWGA
protein stability index [2]: 0.895 ± 0.14

WGVSARDPVFKE
protein stability index [2]: 0.654 ± 0.018

WGVSGAGPHLLL
protein stability index [2]: 0.74 ± 0.038

WGWGGGRGGMGG
protein stability index [2]: 0.716 ± 0.022

WGWPHQRDGFLG
protein stability index [2]: 0.66 ± 0.007

WHWDGVGTLVIW
protein stability index [2]: 0.605 ± 0.14

WLCLARGRLGLH
protein stability index [2]: 0.583 ± 0.011

WLESHVSRGLTT
protein stability index [2]: 0.64 ± 0.021

WLGRGGACGVRW
protein stability index [2]: 0.696 ± 0.05

WLGTIVCGRGWW
protein stability index [2]: 0.7003 ± 0.006

WLLGLCLFGFHR
protein stability index [2]: 0.577 ± 0.013

WLLKGTVTLMMW
protein stability index [2]: 0.5687 ± 0.0031

WLPPPPYSPFSL
protein stability index [2]: 0.724 ± 0.059

WLREDCLLSRGR
protein stability index [2]: 0.7 ± 0.0016

WLRSLLKENLVR
protein stability index [2]: 0.5422 ± 0.0016

WLRVLFPSSPGD
protein stability index [2]: 0.607 ± 0.04

WLSAGAWGAVIL
protein stability index [2]: 0.788 ± 0.034

WPLISPFSKHRW
protein stability index [2]: 0.696 ± 0.055

WPLVLSYRKESA
protein stability index [2]: 0.803 ± 0.22

WQGARLSSREGH
protein stability index [2]: 0.694 ± 0.038

WQLKGNGGREAL
protein stability index [2]: 0.671 ± 0.034

WQNKKDNGKIRG
protein stability index [2]: 0.724 ± 0.11

WRCYCFLGLDEG
protein stability index [2]: 0.653 ± 0.029

WRPLIPPSLPPL
protein stability index [2]: 0.6977 ± 0.0069

WRQRVWRGGWKG
protein stability index [2]: 0.594 ± 0.031

WSGGWAGGMLNE
protein stability index [2]: 0.641 ± 0.027

WSIGGKSFVGIA
protein stability index [2]: 0.676 ± 0.031

WSISKSTWGPIG
protein stability index [2]: 0.673 ± 0.023

WSQGAIDRLDLS
protein stability index [2]: 0.641 ± 0.13

WSRRGGWEKYGV
protein stability index [2]: 0.676 ± 0.032

WSSSVGIKGAWF
protein stability index [2]: 0.707 ± 0.022

WSVGRVGGCGAR
protein stability index [2]: 0.704 ± 0.052

WTCMNRRMREED
protein stability index [2]: 0.739 ± 0.072

WTNRVPLYALPT
protein stability index [2]: 0.657 ± 0.0081

WVGAGGGSGYGR
protein stability index [2]: 0.677 ± 0.018

WVGKCLCRGLCD
protein stability index [2]: 0.668 ± 0.0096

WVMREIVFGSLY
protein stability index [2]: 0.698 ± 0.017
